This is an account of results in US12281147 (dated 2025).

For the assay, the target named is IL-21_mouse_WT Fc fusion protein (mouse; human, UniProt Q9ES17 18-146). Kind of assay: BLI.

B1: recombinant human IL-21R His tag (Acro Biosystems) (receptor, not shown: small tags and cut ends)
chain: not shown
In the case of B1, binding was characterised by a dissociation constant (Kd) of 6.38 nM.

B2: mouse IL-21R, His-tagged (BLI antigen) (receptor, not shown: small tags and cut ends)
chain: not shown
B2: the Kd (in general, the concentration at which binding is half-saturated) was determined as 5.08 nM.
